Test results: US20040254352A1, “Lipid-polymer-conjugates” (priority 2001, published 2004)
“And” between values parts separate entries of the source, which are not always exact repeats. Equal entries are not always repeated.

Experiments:
[1] = Comparative kinetics of 3H-labelled liposomes containing polymer-lipid-conjugates after a single intravenous injection to the rat (blood circulation time); settings: for Increase of blood circulation time: rat, single i.v. injection; for Blood circulation time of the liposomes compared with PEG-grafted liposomes: intravenous administration to rats
Protocol: Single-dose intravenous injection of liposomal preparations, each containing ^3H-labelled cholesteryloleylether (Amersham) having 40-50 kBq of radioactivity, (compositions per 50 μmol lipid are shown in Table 1) was given into the tail-vein. Total Lipid administered was 5 μmol, except in the cases indicated.
Blood samples were collected from the tail vein of each rat at the following time points post-dose: 5 minutes and 4, 24 and 48 hours. The amount of sample collected was approx. 300 μl per sampling event.
Sampled blood was transferred into heparinised tubes and stored at −20° C.
A single aliquot of 100 μl was solubilised according to the following method:
Radioactivity was measured by LSC.
All radioactive measurements were performed using a Packard scintillation counter (1900TR). Counting time was to a statistical precision of ±0.2% or a maximum of 5 minutes, whichever comes first. The Packard 1900TR was programmed to automatically subtract background and convert counts per minute (CPM) to disintegrations per minute (DPM).
The increase of blood circulation time was assessed, wherein:
Moderate means effect on circulation time in between those shown by PEG-DSPE-containing liposomes and bare liposomes without polymer coating.
Slightly means effect on circulation time under the current conditions almost similar to that shown by bare liposomes.

[2] = Particle size and polydispersity of liposomes by (dynamic) light scattering; type: physicochemical; settings: DPPC/cholesterol/conjugate liposomes of Table 1 (Example 21); for Average particle size: dynamic light scattering
Protocol: The lipid loss during preparation of the liposomes was 25%, determined by comparing the final radioactivity of the preparation with the activity before the extrusion procedure. The suspension of liposomes was stored in a nitrogen atmosphere at 4° C. Liposomes were prepared using the film method, as described in example 20. Instead of egg phosphatidylcholine dipalmitoyl phosphatidylcholine was used. 5 mM HEPES buffer was added to the dry lipid film and shaken during 5 minutes in the presence of glass beads in order to enable complete hydration of the lipid film. The liposomes were sized by extrusion 12 times through 2 stacked PC membranes having pore sizes of 100 and 200 nm. […] See table 1 for the properties of the liposomal preparations.

[3] = as above; type: physicochemical
[4] = Storage stability of prednisolone phosphate liposomes at 4° C. (percentage encapsulated prednisolone phosphate versus time); settings: compared with poly(2-hydroxyethyl)-L-glutamine-diaminobutane DODASuc-conjugate-containing liposome
[5] = Total Lipid administered 5 μmol
[6] = Total Lipid administered 0.005 μmol
[7] = Total Lipid administered 0.05 μmol
[8] = Total Lipid administered 0.5 μmol
[9] = prednisolone phosphate liposomes of Example 23, light scattering
[10] = 11.2 mg conjugate per 50 µmol lipid
[11] = 13.8 mg conjugate per 50 µmol lipid

| Compound | Increase of blood circulation time [1, 5] | Polydispersity index [2] | Average particle size [2] | other results |
| --- | --- | --- | --- | --- |
| CCCCCCCCCCCCCCCCCCN(CCCCCCCCCCCCCCCCCC)C(=O)CCC(=O)NCCC(=O)NCCC(=O)NCCC(=O)N[C@@H](CCC(=O)NCCO)C(=O)NCCC(=O)NCCC(=O)NCCC(=O)NCCC(=O)N[C@@H](CCC(=O)NCCO)C(=O)NCCC(=O)NCCC(=O)NCCC(=O)N[C@@H](CCC(=O)NCCO)C(=O)NCCC(=O)NCCC(N)=O [Ex. 19, DODASuc-(β-Ala)3-HEG-(β-Ala)4-HEG-(β-Ala)3-HEG-(β-Ala)2-NH2] | Moderate |  |  |  |
| Cholesteryl-PHEG [Ex. 6] | Slightly | 0.116 | 138.7 ± 1.8 nm |  |
| PEG-distearoylphosphatidylethanol-amine [PEG-DSPE, reference compound] | Good |  | 156.3 nm | Increase of blood circulation time [1, 6]: <Slightly; Increase of blood circulation time [1, 7]: Good; Increase of blood circulation time [1, 8]: Good; Mean particle size [3, 9]: ~90 nm |
| PHEG-diaminobutane DODASuc [Ex. 5.1] | Good and Good § | 0.090 and 0.073 | 140.3 ± 2.2 nm and 159.0 ± 3.8 nm | Blood circulation time of the liposomes compared with PEG-grafted liposomes [1]: Results similar to those obtained with the corresponding PEG-grafted liposomes |
| Poly(2-hydroxyethyl)-DL-glutamine diaminobutane DODASuc [Ex. 7] |  | 0.073 | 159.0 ± 3.8 nm |  |
| Poly(2-hydroxyethyl)-L-asparagine DODASuc [Ex. 11] | Good and Good § |  |  | Stability of liposomal preparation with encapsulated prednisolone phosphate [4]: slightly better result; Blood circulation time of the liposomes compared with PEG-grafted liposomes [1]: Results similar to those obtained with the corresponding PEG-grafted liposomes; Increase of blood circulation time [1, 6]: Slightly; Increase of blood circulation time [1, 7]: Good; Increase of blood circulation time [1, 8]: Good |
| Poly(D,L-methionine sulfoxide) DODASuc [Ex. 15] | Good | 0.062 | 159.9 ± 2.3 nm | Blood circulation time of the liposomes compared with PEG-grafted liposomes [1]: Results similar to those obtained with the corresponding PEG-grafted liposomes |
| Poly(DL-asparagine) DODASuc [Ex. 17] | Moderate |  |  |  |
| Poly(DL-glutamine DODASuc [Ex. 16] | Moderate |  |  |  |
| Poly(DL-serine) DODASuc [Ex. 13] | Slightly |  |  |  |
| Poly(N-(2-hydroxyethyl)-L-glutamine) Having a Heptadecyloctadecylamine End Group [Ex. 2] |  | 0.205 | 143 ± 2 nm |  |
| Poly-L-threonine DODASuc [compound 14] |  |  |  | Mean particle size [3, 9]: about 85 nm |
| Poly-[(2-hydroxypropyl)-L-glutamine]diaminobutane DODASuc [Ex. 5.2] |  |  |  | Average particle size [2, 10]: 163.9 ± 3.0 nm; Average particle size [2, 11]: 153.0 ± 0.9 nm; Polydispersity index [2, 10]: 0.068; Polydispersity index [2, 11]: 0.090 |
| Poly-[(4-hydroxybutyl)-L-glutamine]diaminobutane DODASuc [Ex. 5.4] |  | 0.071 | 148.2 ± 1.7 nm |  |
| Poly-[N-(2-hydroxyethyl)-L-glutamine] Having a Distearylamine End Group Introduced Via N-Boc-1,4-diaminobutane as Initiator [Ex. 3] |  | 0.056 | 153 ± 0.5 nm |  |
| poly(HEG-co-dimethylaminoethylglutamine)diaminobutane DODASuc; 5% dimethylaminoethyl sidegroups [Ex. 9] | Moderate | 0.039 | 170.3 ± 2.5 nm |  |
| poly-[N-(2-hydroxyethyl)-L-glutamine]-stearylamine [Ex. 20] |  | 0.167 | 171.6 ± 2.5 nm | Polydispersity index ([3]; EPC/cholesterol/PHEG-stearylamine liposomes of Example 20): 0.099±0.02; Mean particle size ([3]; EPC/cholesterol/PHEG-stearylamine liposomes of Example 20, light scattering (Malvern Zeta-sizer)): 93.6±0.9 nm |
